Assay results reported in patent US20260109787A1 (NATIONAL UNIVERSITY CORPORATION YAMAGATA UNIVERSITY, published 2026).

Legend:
[1] = target: T1, VHH-SpyCatcher-CD3 H chain; test: SDS-PAGE before and after thrombin cleavage; the complex bands are lost after cleavage
T1 construct: Fusion protein expressed in Expi293F cells; also called second protein; VHH-SpyCatcher-CD3 H chain region
Experimental: Next, it was examined whether the band at the estimated molecular weight of the complex in Example 1(3) above was derived from the complex that included the VHH-SpyTag-CD3 L chain and the VHH-SpyCatcher-CD3 H chain. Specifically, the protein was purified in the same manner as in Example 1(2) above, and the elution fraction after the purification was added to a thrombin buffer (2.5 mmol/l CaCl₂), 150 mmol/l NaCl, 20 mmol/l Tris-HCl (pH8.0)). After the addition, the resulting mixture was dialyzed for 6 hours. Then, thrombin (cleaving ability: 2 unit/μl, manufactured by Wako Pure Chemical Industries, Ltd.) was added in accordance with the yield of the protein. After the addition, the mixture was left to stand at 25° C. overnight. After the standing, a sample after the cleavage reaction was purified using a protein A column. After the purification, a purified thrombin-cleaved sample was obtained. Then, SDS-PAGE was conducted. The SDS-PAGE was conducted in the same manner as in Example 1(3) above, except that the purified thrombin-cleaved sample was used as a sample for the SDS-PAGE in addition to the purified sample. […]

[2] = target: T2, VHH-SpyCatcher (fragment released from VHH-SpyCatcher-CD3 H chain by thrombin); test: SDS-PAGE of the purified thrombin-cleaved sample
T2 construct: Seen only as a band on SDS-PAGE, together with VHH-SpyTag

[3] = target: T3, VHH-SnoopCatcher (fragment released from VHH-SnoopCatcher-Herceptin H chain by thrombin); test: SDS-PAGE of the purified thrombin-cleaved sample
T3 construct: Seen only as a band on SDS-PAGE, together with VHH-SnoopTag

B1: VHH-SpyTag-CD3 L chain (other)
chain: QVQLVESGGALVQPGGSLRLSCAASGFPVNRYSMRWYRQAPGKEREWVAGMSSAGDRSSYEDSVKGRFTISRDDARNTVYLQMNSLKPEDTAVYYCNVNVGFEYWGQGTQVTVSSGGSGGAHIVMVDAYKPTKGGSGGGGSGGLVPRGSHMHMDIVLTQSPAIMSASPGEKVTMTCSASSSVSYMNWYKQKSGTSPKRWTYDTSKLASGVPARFSGSGSGTSYSLTISSMEAEDAATYYCQQWSSNPPTFGSGTKLEIKRTVAAPSVFIFPPSDEQLKSGTASVVCLLNNFYPREAKVQWKVDNALQSGNSQESVTEQDSKDSTYSLSSTLTLSKADYEKHKVYACEVTHQGLSSPVTKSFNRGEC
notes: Fusion protein expressed in Expi293F cells; also called first protein; VHH-SpyTag-CD3 L chain region
- binding result [1]: binds

B2: VHH-SpyTag (fragment released from VHH-SpyTag-CD3 L chain by thrombin) (other, not shown: small tags and cut ends)
chain: QVQLVESGGALVQPGGSLRLSCAASGFPVNRYSMRWYRQAPGKEREWVAGMSSAGDRSSYEDSVKGRFTISRDDARNTVYLQMNSLKPEDTAVYYCNVNVGFEYWGQGTQVTVSSGGSGGAHIVMVDAYKPTKGGSGGGGSGG
notes: Seen only as a band on SDS-PAGE, together with VHH-SpyCatcher
- binding result [2]: binds

B3: VHH-SnoopTag (fragment released from VHH-SnoopTag-Herceptin L chain by thrombin) (other, not shown: small tags and cut ends)
chain: QVQLVESGGALVQPGGSLRLSCAASGFPVNRYSMRWYRQAPGKEREWVAGMSSAGDRSSYEDSVKGRFTISRDDARNTVYLQMNSLKPEDTAVYYCNVNVGFEYWGQGTQVTVSSGGSGGKLGDIEFIKVNKGGSGGGGSGG
notes: Seen only as a band on SDS-PAGE, together with VHH-SnoopCatcher
- binding result [3]: binds
